# Laboratory results: US20190106510A1 (CELLDEX THERAPEUTICS, published 2019)
# Residue numbers refer to the chain shown, from its start.
# T1: murine KIT (murine, UniProt P05532 25-527, limits assumed)
# T1 sequence (looked up): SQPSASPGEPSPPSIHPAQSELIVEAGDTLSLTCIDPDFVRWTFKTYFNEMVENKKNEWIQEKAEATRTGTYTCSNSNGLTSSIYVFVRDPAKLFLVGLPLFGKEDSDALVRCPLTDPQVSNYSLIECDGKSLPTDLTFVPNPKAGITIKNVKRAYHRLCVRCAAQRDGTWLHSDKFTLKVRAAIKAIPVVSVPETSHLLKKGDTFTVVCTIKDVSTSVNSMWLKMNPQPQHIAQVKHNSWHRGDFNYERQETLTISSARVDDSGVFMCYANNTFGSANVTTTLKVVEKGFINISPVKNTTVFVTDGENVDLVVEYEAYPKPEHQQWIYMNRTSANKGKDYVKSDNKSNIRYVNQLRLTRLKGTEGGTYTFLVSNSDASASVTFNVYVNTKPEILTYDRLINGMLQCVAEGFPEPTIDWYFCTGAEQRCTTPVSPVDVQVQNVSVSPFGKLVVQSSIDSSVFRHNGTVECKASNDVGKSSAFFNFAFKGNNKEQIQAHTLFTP
# B1: Hum4 (antibody, V domains shown)
# VH: QVQLVQSGAEVKKPGASVKVSCKASGYTFTDYYINWVRQAPGKGLEWIARIYPGSGNTYYNEKFKGRATITADKSTSTAYMELSSLRSEDTAVYFCARGVYYFDYWGQGTTVTVSS
# VL: DIVMTQSPSFLSASVGDRVTITCKASQNVRTNVAWYQQKPGKAPKALIYSASYRYSGVPDRFTGSGSGTDFTLTISSLQSEDFADYFCQQYNSYPRTFGGGTKVEIK
# B2: Hum19 (antibody, V domains shown)
# VH: B1 VH
# VL: B1 VL with F10S, A46S, T63S, S80P, D85T, F87Y
# B3: Hum1 (antibody, V domains shown)
# VH: B1 VH with V11L, V20L, R38K, I70L, D73E, E82Q, T91S
# VL: B1 VL
# notes: Variable regions cloned into expression vectors for human IgG1 VH chains and human V kappa chains
# B4: Hum13 (antibody, V domains shown)
# VH: B1 VH with V20L, I70L, E82Q
# VL: B1 VL with F10S, T63S, S80P
# B5: Hum7 (antibody, V domains shown)
# VH: B1 VH with V20L, R38K, I70L, D73E, E82Q
# VL: B1 VL with F10S, S80P
# B6: Hum2 (antibody, V domains shown)
# VH: B1 VH with V20L, R38K, I70L, D73E, E82Q
# VL: B1 VL
# B7: Hum15 (antibody, V domains shown)
# VH: B1 VH with A68V
# VL: B1 VL with F10S, T63S, S80P
# B8: Hum16 (antibody, V domains shown)
# VH: B1 VH with V11L, V20L, R38K, I70L, D73E, E82Q, T91S
# VL: B1 VL with F10S, A46S, T63S, S80P, D85T, F87Y
# B9: Hum3 (antibody, V domains shown)
# VH: B1 VH with V20L, I70L, E82Q
# VL: B1 VL
# B10: Hum9 (antibody, V domains shown)
# VH: B1 VH
# VL: B1 VL with F10S, S80P
# B11: Hum12 (antibody, V domains shown)
# VH: B1 VH with V20L, R38K, I70L, D73E, E82Q
# VL: B1 VL with F10S, T63S, S80P
# B12: Hum6 (antibody, V domains shown)
# VH: B1 VH with V11L, V20L, R38K, I70L, D73E, E82Q, T91S
# VL: B1 VL with F10S, S80P
# B13: Hum18 (antibody, V domains shown)
# VH: B1 VH with V20L, I70L, E82Q
# VL: B1 VL with F10S, A46S, T63S, S80P, D85T, F87Y
# B14: Hum11 (antibody, V domains shown)
# VH: B1 VH with V11L, V20L, R38K, I70L, D73E, E82Q, T91S
# VL: B1 VL with F10S, T63S, S80P
# B15: Hum14 (antibody, V domains shown)
# VH: B1 VH
# VL: B1 VL with F10S, T63S, S80P
# B16: Hum5 (antibody, V domains shown)
# VH: B1 VH with A68V
# VL: B1 VL
# B17: Hum20 (antibody, V domains shown)
# VH: B1 VH with A68V
# VL: B1 VL with F10S, A46S, T63S, S80P, D85T, F87Y
# Biological target: T1, murine KIT
# Experiment: additional binding assays (format not described)
row,binding result,Binder
1,no binding,B1

# Biological target: T2, recombinant KIT D4/D5 (human, UniProt P10721 26-519)
# T2 construct: also called recombinant c-Kit Ig-like domains D4/D5; recombinant polypeptide of the D4/D5 region of human KIT
# Experiment: direct binding ELISA, plate-coated recombinant KIT D4/D5; assay #4 (purified)
# Description: (§1) The binding affinity of the anti-KIT antibodies to the target antigen KIT Ig-like domains D4/D5 was assessed by direct binding ELISA. […] Bound antibody was detected with anti-human Ig-HRP followed by detection using TMB substrate.
# T2 sequence (P10721 other isoform, or with tags, fused parts or gaps limits assumed): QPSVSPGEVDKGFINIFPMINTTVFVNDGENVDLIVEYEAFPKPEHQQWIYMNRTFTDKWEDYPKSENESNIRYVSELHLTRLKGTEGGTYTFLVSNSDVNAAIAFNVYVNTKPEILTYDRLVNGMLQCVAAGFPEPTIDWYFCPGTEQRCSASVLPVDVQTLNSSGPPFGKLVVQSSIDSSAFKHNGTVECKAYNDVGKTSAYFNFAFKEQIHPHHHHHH
row,Relative binding activity,Binder
1,0.85 relative to chimeric antibody 37C (normalized EC50),B2
2,0.83 relative to chimeric antibody 37C (normalized EC50),B1

# Biological target: T3, full-length, wild-type human KIT expressed on CHO cells (human, UniProt P10721 26-976)
# Experiment: cell-based or functional assay
# T3 sequence (P10721 other isoform, or with tags, fused parts or gaps limits assumed): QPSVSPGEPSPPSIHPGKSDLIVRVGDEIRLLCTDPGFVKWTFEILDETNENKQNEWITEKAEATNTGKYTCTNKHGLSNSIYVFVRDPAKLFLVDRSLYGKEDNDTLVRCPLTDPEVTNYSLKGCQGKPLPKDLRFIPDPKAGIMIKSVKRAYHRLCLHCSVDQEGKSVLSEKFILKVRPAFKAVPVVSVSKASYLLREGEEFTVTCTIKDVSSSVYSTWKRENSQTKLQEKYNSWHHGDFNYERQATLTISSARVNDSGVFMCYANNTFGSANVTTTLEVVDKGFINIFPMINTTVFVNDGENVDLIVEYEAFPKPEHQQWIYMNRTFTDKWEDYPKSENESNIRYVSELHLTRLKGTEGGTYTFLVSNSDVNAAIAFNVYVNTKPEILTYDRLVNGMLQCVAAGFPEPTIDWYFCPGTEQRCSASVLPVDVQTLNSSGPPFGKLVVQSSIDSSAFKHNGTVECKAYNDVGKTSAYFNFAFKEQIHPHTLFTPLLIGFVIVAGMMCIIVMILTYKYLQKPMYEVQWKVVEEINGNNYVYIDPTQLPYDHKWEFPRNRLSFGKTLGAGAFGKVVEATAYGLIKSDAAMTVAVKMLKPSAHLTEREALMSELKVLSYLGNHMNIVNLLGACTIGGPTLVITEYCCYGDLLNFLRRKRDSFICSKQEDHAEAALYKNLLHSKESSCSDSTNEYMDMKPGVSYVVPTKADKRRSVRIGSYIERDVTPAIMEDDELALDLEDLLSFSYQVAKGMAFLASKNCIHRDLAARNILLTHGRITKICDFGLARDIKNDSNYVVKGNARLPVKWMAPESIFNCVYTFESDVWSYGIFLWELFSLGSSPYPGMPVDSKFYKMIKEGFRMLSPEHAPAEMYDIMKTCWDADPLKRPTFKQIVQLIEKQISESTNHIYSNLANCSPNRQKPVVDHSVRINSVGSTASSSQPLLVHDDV
row,"50% inhibition concentration (IC50), SCF-induced KIT tyrosine phosphorylation, cell-based phospho-KIT ELISA",Binder
1,~0.47 nM,B1

# Biological target: T2, recombinant KIT D4/D5
# Experiment: direct binding ELISA, plate-coated recombinant KIT D4/D5; assay #2 (supernatant)
# Description: as §1
row,Relative binding activity,Binder
1,0.64 relative to chimeric antibody 37C (normalized EC50),B3
2,0.78 relative to chimeric antibody 37C (normalized EC50),B4
3,0.8 relative to chimeric antibody 37C (normalized EC50),B5
4,0.79 relative to chimeric antibody 37C (normalized EC50),B6
5,0.76 relative to chimeric antibody 37C (normalized EC50),B7
6,1.02 relative to chimeric antibody 37C (normalized EC50),B8
7,0.88 relative to chimeric antibody 37C (normalized EC50),B9
8,1 relative to chimeric antibody 37C (normalized EC50),B10
9,1.05 relative to chimeric antibody 37C (normalized EC50),B2
10,0.72 relative to chimeric antibody 37C (normalized EC50),B11
11,0.7 relative to chimeric antibody 37C (normalized EC50),B12
12,0.79 relative to chimeric antibody 37C (normalized EC50),B13
13,0.74 relative to chimeric antibody 37C (normalized EC50),B14
14,1.03 relative to chimeric antibody 37C (normalized EC50),B15
15,0.93 relative to chimeric antibody 37C (normalized EC50),B16
16,0.7 relative to chimeric antibody 37C (normalized EC50),B17
17,0.91 relative to chimeric antibody 37C (normalized EC50),B1

# Biological target: T2, recombinant KIT D4/D5
# Experiment: direct binding ELISA, plate-coated recombinant KIT D4/D5; assay #1 (supernatant)
# Description: as §1
row,Relative binding activity,Binder
1,1.11 relative to chimeric antibody 37C (normalized EC50),B4
2,1.12 relative to chimeric antibody 37C (normalized EC50),B5
3,0.87 relative to chimeric antibody 37C (normalized EC50),B7
4,1.2 relative to chimeric antibody 37C (normalized EC50),B8
5,1.08 relative to chimeric antibody 37C (normalized EC50),B10
6,1.11 relative to chimeric antibody 37C (normalized EC50),B2
7,1.23 relative to chimeric antibody 37C (normalized EC50),B11
8,1.15 relative to chimeric antibody 37C (normalized EC50),B12
9,1.22 relative to chimeric antibody 37C (normalized EC50),B13
10,1.14 relative to chimeric antibody 37C (normalized EC50),B15
11,0.8 relative to chimeric antibody 37C (normalized EC50),B17

# Biological target: T3, full-length, wild-type human KIT …
# Experiment: cell-based or functional assay
# Remark: another data set of the same source
"Relative blocking activity, assay #3 (96-well): IC50 of inhibition of SCF-induced KIT phosphorylation, normalized to chimeric 37M antibody","Relative blocking activity, assay #1 (24-well): IC50 of inhibition of SCF-induced KIT phosphorylation, normalized to chimeric 37M antibody","Relative blocking activity, assay #4 (96-well): IC50 of inhibition of SCF-induced KIT phosphorylation, normalized to chimeric 37M antibody","Relative blocking activity, assay #2 (24-well): IC50 of inhibition of SCF-induced KIT phosphorylation, normalized to chimeric 37M antibody",Binder
1 relative to chimeric 37M antibody,,,,B4
0.99 relative to chimeric 37M antibody,0.98 relative to chimeric 37M antibody,,,B7
1.05 relative to chimeric 37M antibody,,,,B10
0.98 relative to chimeric 37M antibody,1.09 relative to chimeric 37M antibody,1.4 relative to chimeric 37M antibody,,B2
,,,1.22 relative to chimeric 37M antibody,B13
,,,0.94 relative to chimeric 37M antibody,B15
,,0.86 relative to chimeric 37M antibody,1.2 relative to chimeric 37M antibody,B1

# Biological target: T2, recombinant KIT D4/D5
# Experiment: direct binding ELISA, plate-coated recombinant KIT D4/D5; assay #3 (purified)
# Description: as §1
row,Relative binding activity,Binder
1,0.87 relative to chimeric antibody 37C (normalized EC50),B7
2,0.85 relative to chimeric antibody 37C (normalized EC50),B10
3,0.95 relative to chimeric antibody 37C (normalized EC50),B2
4,0.99 relative to chimeric antibody 37C (normalized EC50),B13
5,0.74 relative to chimeric antibody 37C (normalized EC50),B15
6,1.07 relative to chimeric antibody 37C (normalized EC50),B1

# Biological target: T3, full-length, wild-type human KIT …
# Experiment: flow cytometry on CHO cells expressing full-length wild-type human KIT (FIG. 6)
# Description: Briefly, parental CHO cells and CHO/KIT-WT cells were washed and incubated with 0.01 nM, 0.1 nM, 1 nM or 10 nM of a chimeric (human-mouse) 37M antibody, antibody Hum17, Hum8, Hum4, or Hum10, a negative control isotype IgG antibody, or a commercial anti-KIT antibody as a positive control. The samples were processed for flow cytometry analysis. More specifically, cells were removed from the culture flasks using EDTA, and washed with PBS. Then, the cells were resuspended in media and counted. Each sample containing approximately 200,000 to 250,000 cells was spun, the media was removed, and the cells were resuspended in FC buffer (1% BSA, 0.01% sodium azide in 1×PBS) for the blocking step. The cells were incubated in FC buffer for 1 hour on ice. Then, primary antibody (e.g., a chimeric (human-mouse) 37M antibody, Hum17, Hum8, Hum4, Hum10, positive control anti-KIT antibody, or negative control antibody) was added to the cells in FC buffer as described above. The samples were mixed and incubated on ice for 1 hour, followed by washing the cells with 0.5-1 mL FC buffer. The FC buffer was removed by spinning the cells at 1200 rpm for 3 minutes at 4° C., decanting the liquid. The cell pellets were resuspended in 200 μL FC buffer, and secondary antibody (DyLight 488 AffiniPure Goat Anti-Mouse IgG Jackson Laboratories) was added to the cells at a 1:1000 to 1:2000 dilution. The samples were mixed and incubated on ice for 1 hour, and then washed as described above. The samples were run on a fluorescence activated cell sorter (FACS) machine (Accuri FlowCytometer C6). Samples were analyzed by following channel FLA-1 for DyLight-conjugated samples.
row,EC50,Binder
1,~0.106 nM,B1

# Biological target: T2, recombinant KIT D4/D5
# Experiment: solid phase ELISA, plate-adsorbed recombinant D4/D5 region of human KIT (FIG. 5)
# Description: Recombinant antigen corresponding to the D4/D5 region of the KIT extracellular domain (see FIG. 2) was absorbed onto 96-well microtiter plates. In particular, recombinant antigen (5 μg) were diluted into 10 mL of borate buffer, and 100 μL of the antigen solution were added to each well of a 96 well plate and were incubated at 4° C. overnight.
# ELISA: Following one rinse with TBS-T, blocking buffer (200 μL) was added to each well of the plate with the adsorbed antigen and was incubate at room temperature for one hour. Then, the blocking buffer was removed, and the serially diluted solutions of test antibodies and controls were added to the plate in a volume of 50 μL and incubated at room temperature for one hour. The antibody solutions were removed, and the plate was washed three times with 100 μL of wash buffer on a plate washer. After the last wash, the plate was blotted dry. Secondary antibody solution was diluted 1:8000 and was added to each well in a volume of 100 μL and allowed to incubate for one hour at room temperature. The diluted secondary antibody solution was removed, and the plate was washed three times with 100 μL of wash buffer on a plate washer. Then, freshly mixed TMB substrate solution was added to each well in a volume of 100 μL and was allowed to incubate at room temperature for 30 minutes. Subsequently, 100 μL of 2N H₂SO₄ were added to each well and immediately read on the plate reader. An irrelevant antibody served as the negative control, and an anti-KIT antibody against the D4 and/or D5 domain of the extracellular region of KIT served as the positive control. OD values for each sample were obtained at a wavelength of 450 nm.
# Results were analyzed using Graph Pad Prism and Excel to obtain the concentration of antibodies at 50% binding to antigen.
row,EC50,Binder
1,~0.0075 nM,B1
